Reference: US20080213812

System: Site C binding proteins, HeLa nuclear fraction (HA pool; LBP-1b and LBP-1c/LSF identified by MS) (Homo sapiens)
Experiment: pulldown

Sequence	binding signal (fmol shifted per ug protein) (equivalent OBC column fraction, 6,300 units and 103 ug, four fold less Site C EMSA activity recovered than from Site C column)	binding signal (fmol shifted per ug protein) (oligo affinity column fraction, 25,332 units and 36.7 ug protein, activity assayed by Site C EMSA)
TCGCGGCGAGAGTTTCAGGCAGCGCTGCGT (double strand) [OBC oligo]	61.2	
TCGCGGCGCGAGTTTCAGGCAGCGCTGCGT (double strand) [Site C oligo (hTERT promoter)]		690
